Results as given in patent publication US8986682B2, “Method to increase the absorption of unsaturated fatty acids by human infants” (Swedish Orphan Biovitrum AB (publ), priority 2010, dated 2015).
Like-named read-outs stand apart in the source and are kept apart here.

What was measured:
patients = conditions: cited from earlier work
kittens = conditions: 0.1 mg/mL in kitten-formula mixed with cow milk, 5 days; cited from earlier work
[1] = Specific activity with PNPB substrate, sodium cholate as bile-salt activator; type: biochemical; conditions: 20 mM sodium cholate activation solution, 27° C., after HA-HPLC and SE-HPLC purification
Protocol: Differences in functional properties are observed between rhBSSL-CHO and BSSL-MAM and from rhBSSL-OVI. The specific activity of rhBSSL-CHO is observed to be higher than that of the other forms of BSSL. The specific activities of BSSL-MAM and rhBSSL-OVI are only 80% of that of rhBSSL-CHO based on mass. Each sample is specifically purified by HA-HPLC and SE-HPLC before determination of specific activity. Specific activity is determined using 4-nitrophenyl ester butyric acid (PNPB) as a substrate for BSSL, and detection of the release of 4-nitrophenol. Briefly, a dilution series of rhBSSL (for example, from 20 to 160 ng activity/mL) is prepared in PBS with 0.1% BSA. 200 μl of these rhBSSL solutions is added to 25 μl of an activation solution containing 20 mM sodium cholate (as bile-salt activator) in PBS with 0.1% BSA. These solutions are preincubated in a spectrophotometer at 27° C. for 5 minutes. Just before measuring, 25 μl of a well-mixed substrate solution containing 5 mM PNPB in PBS-Tween is added. The formation of 4-nitrophenol can be detected by its absorbance at 400 nm and the increase in absorbance is measured during 90 seconds. The active amount of BSSL is determined using a standard curve of an rhBSSL reference standard.

[2] = system: CF patients (aged 12 to 39 years) with PI; conditions: single dosing of 0.2 g or 1 g as complement to 25% of regular Creon dosing; cited from earlier work

agalsidase alfa: recombinant human alpha-galactosidase A produced in a continuous line of human fibroblasts
Patients with presence of IgG (patients; in vivo): 55%

agalsidase beta: recombinant human alpha-galactosidase A produced in CHO cells
Patients with presence of IgG (patients; treated patients): almost all patients

B1: BSSL-MAM: native human milk bile-salt-stimulated lipase (protein, UniProt P19835 21-753, looked up)
Bile salt-activated lipase: AKLGAVYTEGGFVEGVNKKLGLLGDSVDIFKGIPFAAPTKALENPQPHPGWQGTLKAKNFKKRCLQATITQDSTYGDEDCLYLNIWVPQGRKQVSRDLPVMIWIYGGAFLMGSGHGANFLNNYLYDGEEIATRGNVIVVTFNYRVGPLGFLSTGDANLPGNYGLRDQHMAIAWVKRNIAAFGGDPNNITLFGESAGGASVSLQTLSPYNKGLIRRAISQSGVALSPWVIQKNPLFWAKKVAEKVGCPVGDAARMAQCLKVTDPRALTLAYKVPLAGLEYPMLHYVGFVPVIDGDFIPADPINLYANAADIDYIAGTNNMDGHIFASIDMPAINKGNKKVTEEDFYKLVSEFTITKGLRGAKTTFDVYTESWAQDPSQENKKKTVVDFETDVLFLVPTEIALAQHRANAKSAKTYAYLFSHPSRMPVYPKWVGADHADDIQYVFGKPFATPTGYRPQDRTVSKAMIAYWTNFAKTGDPNMGDSAVPTHWEPYTTENSGYLEITKKMGSSSMKRSLRTNFLRYWTLTYLALPTVTDQEATPVPPTGDSEATPVPPTGDSETAPVPPTGDSGAPPVPPTGDSGAPPVPPTGDSGAPPVPPTGDSGAPPVPPTGDSGAPPVPPTGDSGAPPVPPTGDSGAPPVPPTGDSGAPPVPPTGDAGPPPVPPTGDSGAPPVPPTGDSGAPPVTPTGDSETAPVPPTGDSGAPPVPPTGDSEAAPVPPTDDSKEAQMPAVIRF
Growth rate versus kittens fed formula alone (kittens): twice
Specific activity relative to that of rhBSSL-CHO, based on mass [1]: 80%

B2: rhBSSL-OVI: recombinant human BSSL produced in / isolated from the milk of transgenic sheep (protein, UniProt P19835 21-753, looked up)
Bile salt-activated lipase: AKLGAVYTEGGFVEGVNKKLGLLGDSVDIFKGIPFAAPTKALENPQPHPGWQGTLKAKNFKKRCLQATITQDSTYGDEDCLYLNIWVPQGRKQVSRDLPVMIWIYGGAFLMGSGHGANFLNNYLYDGEEIATRGNVIVVTFNYRVGPLGFLSTGDANLPGNYGLRDQHMAIAWVKRNIAAFGGDPNNITLFGESAGGASVSLQTLSPYNKGLIRRAISQSGVALSPWVIQKNPLFWAKKVAEKVGCPVGDAARMAQCLKVTDPRALTLAYKVPLAGLEYPMLHYVGFVPVIDGDFIPADPINLYANAADIDYIAGTNNMDGHIFASIDMPAINKGNKKVTEEDFYKLVSEFTITKGLRGAKTTFDVYTESWAQDPSQENKKKTVVDFETDVLFLVPTEIALAQHRANAKSAKTYAYLFSHPSRMPVYPKWVGADHADDIQYVFGKPFATPTGYRPQDRTVSKAMIAYWTNFAKTGDPNMGDSAVPTHWEPYTTENSGYLEITKKMGSSSMKRSLRTNFLRYWTLTYLALPTVTDQEATPVPPTGDSEATPVPPTGDSETAPVPPTGDSGAPPVPPTGDSGAPPVPPTGDSGAPPVPPTGDSGAPPVPPTGDSGAPPVPPTGDSGAPPVPPTGDSGAPPVPPTGDSGAPPVPPTGDAGPPPVPPTGDSGAPPVPPTGDSGAPPVTPTGDSETAPVPPTGDSGAPPVPPTGDSEAAPVPPTDDSKEAQMPAVIRF
modifications: produced in transgenic sheep milk
Lipid uptake versus Creon alone [2]: more rapid and efficient lipid uptake
Specific activity relative to that of rhBSSL-CHO, based on mass [1]: 80%
